From PMC9530208, “MutS functions as a clamp loader by positioning MutL on the DNA during mismatch repair” come the findings set out here.

One data set concerns the target MutL (Escherichia coli) (UniProt P23367). The data set is described as follows: smTIRF. Particulars: ATP, no MutS, 10 mM NaCl, 10 nM MutL; single mismatch; smTIRF: 20 mM Tris-HCl pH 7.5, 0.1 mM DTT, 0.2 mg/mL acetylated BSA, 0.0025% P-20, 5 mM MgCl2, 100 mM NaCl (Buffer C), 1 mM ATP or AMP-PNP; NaCl varied …; scale: fraction of DNA molecules with MutL sliding clamp.

Data set [1] addresses MutL(R-E) R162E;R266E;R316E (Escherichia coli) (UniProt P23367). The data set is described as follows: smTIRF. To be noted: 30 mM NaCl, 2 nM protein; single mismatch; smTIRF: 20 mM Tris-HCl pH 7.5, 0.1 mM DTT, 0.2 mg/mL acetylated BSA, 0.0025% P-20, 5 mM MgCl2, 100 mM NaCl (Buffer C), 1 mM ATP or AMP-PNP; NaCl varied …; scale: fold fewer binding events than wild-type MutL.
In data set [2] the test system is MutL(R266E) (Escherichia coli). Put plainly: smTIRF. To be noted: 30 mM NaCl, 2 nM protein; single mismatch; smTIRF: 20 mM Tris-HCl pH 7.5, 0.1 mM DTT, 0.2 mg/mL acetylated BSA, 0.0025% P-20, 5 mM MgCl2, 100 mM NaCl (Buffer C), 1 mM ATP or AMP-PNP; NaCl varied …; scale: fold fewer binding events than wild-type MutL.
For data set [3], the target named is MutS;MutL (Escherichia coli;Escherichia coli) (UniProt P23367). Put plainly: smTIRF. Particulars: ATP, 10 nM MutL, single mismatch, smTIRF: 20 mM Tris-HCl pH 7.5, 0.1 mM DTT, 0.2 mg/mL acetylated BSA, 0.0025% P-20, 5 mM MgCl2, 100 mM NaCl (Buffer C), 1 mM ATP or AMP-PNP, NaCl varied …, scale: fraction of DNA molecules with MutL sliding clamp.
For a further data set, the target named is MutS-bio;MutL (Escherichia coli;Escherichia coli, UniProt P23909;P23367 1-853;1-615, |). Put plainly: smTIRF; ATP; immobilized MutS-bio, MutL co-localization lifetime 29 +/- 2 s; smTIRF: 20 mM Tris-HCl pH 7.5, 0.1 mM DTT, 0.2 mg/mL acetylated BSA, 0.0025% P-20, 5 mM MgCl2, 100 mM NaCl (Buffer C), 1 mM ATP or AMP-PNP; NaCl varied 10-100 mM; Mg2+ omitted for MutL-only binding per reviewer comment; temperature not given. Particulars: protein: recombinant;recombinant; chain copies: 2;2; label: 5'-biotin on both strands; blunt, single G/T mismatch at position 32 of strand 1.

Take 18.4-kb mismatched DNA: the binding signal in the data set with MutL (Escherichia coli) amounted to 0.25; in data set [1], 30; in data set [2], 3; in data set [3] (loaded at 10 mM NaCl), 0.567; in data set [3] (loaded at 100 mM NaCl), 0.073.

B1: 59-bp mismatched DNA (dsDNA)
DNA 1: CGCGGGTTTTCGCTATTTATGAAAATTTTCCGGTTTAAGGCGTTTCCGTTCTTCTTCGT
DNA 2: ACGAAGAAGAACGGAAACGCCTTAAACTGGAAAATTTTCATAAATAGCGAAAACCCGCG
B1: in the data set with MutS-bio;MutL, the binding result is given as “binds”.
